4 molecules from PMC2670837, “Staphylococcus aureus immunodominant surface antigen B is a cell-surface associated nucleic acid binding protein” can be followed below.

Data set [1] has as its target T1, IsaB (recombinant, untagged) (Staphylococcus aureus 10833) (UniProt Q9LAB5).
T1 sequence: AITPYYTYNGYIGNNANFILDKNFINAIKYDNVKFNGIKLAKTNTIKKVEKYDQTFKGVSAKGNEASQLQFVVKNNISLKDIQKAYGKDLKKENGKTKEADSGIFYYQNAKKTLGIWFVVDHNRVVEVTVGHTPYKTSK
Description: SPR. Conditions: EMSA: 20 mM HEPES, 1 mM DTT, 20 mM KCl, 200 ug/ml BSA, 10% glycerol, room temperature, 10 min, SPR: 0.33x HBS-EP + non-specific binding inhibitor, SA chip …. In general terms: Mobility shift assays separate free from complexed probe on a gel.

In data set [2] the target is T2, IsaB (recombinant, untagged) (Staphylococcus aureus 10833, UniProt Q9LAB5 37-175).
T2 sequence: T1 sequence
Put plainly: EMSA; 240 pmol-3.84 nmol IsaB; shift abolished by salmon sperm DNA or yeast tRNA, not by dNTPs; EMSA: 20 mM HEPES, 1 mM DTT, 20 mM KCl, 200 ug/ml BSA, 10% glycerol, room temperature, 10 min; SPR: 0.33x HBS-EP + non-specific binding inhibitor, SA chip, Biacore T100; pull-down: 10 mM HEPES, 60 mM KCl, 4 mM MgCl2, 0.1 mM EDTA, 0.1 mg/ml BSA, 0.25 mM DTT, on ice; pH not stated. Conditions: protein: recombinant; label: Alexa Fluor 594 (ULYSIS).

With “TNGUGCAAUUACAAAUAUUUCCGUUUAAUUAUAACAACAAUCUAUUGCA [WTUTR(RNA) (RNA SPR bait; identity inferred)]”, in data set [1] (ribonucleotides with 3' terminal deoxy GCA), the Kd (M (unit not given)) was 1.65e-08. Take “ATTGVGTTATCAATAATCTTA / GGTGGGATCCTTGAAGGATAAGATTA”: the Kd (M (unit not given)) in data set [1] is 8.1e-09. Consider “ATTGVGTTATCAATAATCTTA [BioticaPRO (ssDNA SPR bait; identity inferred)]”, for which the Kd (M (unit not given)) in data set [1] stood at 1.08e-08.

As to GUUUAAUUAUAACAACAAUCUAUUGCA (ssRNA) [icaUTR6], the binding result in data set [2] was “binds”.
